{
  "source": "patent US20250027068",
  "proteins": {"B1": {"name": "PRT-283 (protein)", "chain": "MVTSVWTKGVTPPAKFTQGEDVFHAPYDANQGWYDITKTFNGKDDLLCGAATAGNMLHWWFDQNKEKIEAYLKKHPDKQKIMFGDQELLDVRKVINTKGDQTNSELFNYFRDKAFPNLSARRIGVMPDLVLDMFINGYYLNVYKTQTTDVNRTYQEKDRRGGIFDAVFTRGDQSKLLTSRHDFKEKNLKEISDLIKKELTEGKALGLSHTYANVRISHVINLWGADFDSNGNLKAIYVTDSDSNASIGMKKYFVGVNSAGKVAISAKEIKEDNIGAQVLGLFTLSTGQDSWNQTN"}, "B2": {"name": "PRT-284 (protein)", "chain": "B1 chain with D28V, I216L, S217N, F253G"}, "B3": {"name": "PRT-260 (protein)", "chain": "MVTSVWTKGVTPPTNFTYGEDVLHAPYVANQGWYDITKTFNGKDNLLCGAATAGNMLHWWFDQNKEQIENYLKKHPEKQKINFNGEQLFDVKEAIDTKDSQLDSKLFDYFKEKAFPNLSTKHLGVFPDHVIDMFINGYRLSLLNHGPTPVKRGSKDKRGGIFDAVFTRGVQSKLLTNRHDFKEKTLKEISDLIKQELTEGKALGISHTYANVRINHVINLWGADFDAEGNLEAIYVTDSDTNPSIGMKKYFVGVNSSGKVAISAKEIEEDNIGAQVLGLFTLSTGQDIWNQTN"}, "B4": {"name": "PRT-323 (protein)", "chain": "MTITSVWTKGVTPPTPEDFRENNEDVLHAPYVANQGWYDITKTFDGKDNLLCGAATAGNMLHWWFDQNKEEIERYLKKHPEKQKIIFNNQEWFDVKAAIDTKDSQTNSKLFNYFRDKAFPNLSARQLGVMPDLVLDMFINGYYLNLPKTQSTDVNRPYQDKDKRGGIFDAVFTRGDQTTLLTARHDLKNKGLNEISDLIKQELTEGKALALSHTYANVRINHVINLWGADFDAEGNLIAIYVTDSDANASIGMKKYAVGVNANGKVAISAKKIEGDNIGAQVLGLFTLSTGQDIWQKLS"}, "B5": {"name": "PRT-331 (protein)", "chain": "B4 chain with W92L, N112D, N121G, M130F, P147G, D176V, A257F, V260R, I294Q"}, "B6": {"name": "PRT-275 (protein)", "chain": "MVTSVWTKGVTPPTDFIYGEDVLHAPYKAGQGWYDITKLFNGKDNLLCGAATAGNMLHWWFDQNKEQIENYLKKHPEKQKIIFNNQELFDLKAAIDTKDSQLDSKLFDYFKEKAFPNLSTKHLGVFPDHVIDMFINGYRLSLLNHGPTPVKRGSKDKRGGIFDAVFTRGVQSKLLTNRHDLKNKTLKEISDLIKQELTEGKALGISHTYANGRINHVINLWGADFDAEGNLEAIYVTDSDTNPSIGMKKYFVGVNSSGKVAISAKEIEEDNIGAQVLGLFTLSTGQDIWNQTN"}, "B7": {"name": "PRT-276 (protein)", "chain": "B6 chain with L39T, D108E, K111L, G212V, Y235A, P243A"}, "B8": {"name": "PRT-252 (protein)", "chain": "MVTSVWTKGVTPPTNFTYGEDVLHAPYVANQGWYDITKLFNGKDDLLCGAATAGNMLHWWFDQNKEQIENYLKKHPEKQKINFNGEQMFDVKEAIDTKDSQLDSKLFEYFLEKAFPNLSTKHLGVFPDHVIDMFINGYRLSLLNHGPTPVKRGSKDPRGGIFDAVFTRGDQSKLLTNRHDFKEKTLKEISDLIKQELTEGKALGISHTYANGRINHVINLWGADFDAEGNLEAIAVTDSDSNASIGMKKYFVGVNSSGKVAISAKEIEEDNIGAQVLGLFTLSTGQDIWNQTN"}, "B9": {"name": "PRT-268 (protein)", "chain": "B8 chain with N15D, T17I, V28K, N30G, E108D, L111K, F181L, E183N, A235Y, A243P"}, "B10": {"name": "PRT-307 (protein)", "chain": "MQITSVWTKGVTPLTPEQFRKNNEDVIHAPYLAHQGWYDITKAFDGKDNLLCGAATAGNMLHWWFDQNKTEIEAYLSKHPEKQKIIFNNQELFDLKAAIDTKDSQTNSQLFNYFRDKAFPNLSARQLGVMPDLVLDMFINGYYLNVGKTQSTDVNRPYQDKDKRGGIFDAVFTRGDQTTLLTARHDLKNKGLNDISTIIKQELTEGRALALSHTYANVSISHVINLWGADFNAEGNLEAIYVTDSDANASIGMKKYFVGRNAHGHVAISAKKIEGENIGAQVLGLFTLSSGKDIWQKLS"}, "B11": {"name": "PRT-308 (protein)", "chain": "B10 chain with K21E, N232D, S290L"}, "B12": {"name": "PRT-315 (protein)", "chain": "B10 chain with K21E, N112D, G147F, N236E, A249P"}, "B13": {"name": "PRT-244 (protein)", "chain": "MVTSVWTKGVTPPANFTQGEDVFHAPYVANQGWYDITKTFNGKDDLLCGAATAGNMLHWWFDQNKDQIKRYLEEHPEKQKINFNGEQMFDVKEAIDTKNHQLDSKLFEYFLEKAFPNLSTKHLGVFPDHVIDMFINGYRLSLLNHGPTPVKEGSKDPRGGIFDAVFTRGDQSKLLTSRHDFKEKNLKEISDLIKKELTEGKALGLSHTYANVRINHVINLWGADFDSNGNLKAIAVTDSDSNASIGMKKYFVGVNSSGKVAISAKEIKEDNIGAQVLGLFTLSTGQDSWNQTN"}, "B14": {"name": "PRT-291 (protein)", "chain": "MVTSVWTKGVTPPADFTQGEDVFHAPYVANQGWYDITKTFNGKDDLLCGAATAGNMLHWWFDQNKEYIEAYLKKHPEKQKIMFGDQELLDVRKAINTKGSQKNSELFNYFRDKAFPNLSARRLGVMPDLVLDMFINGYYLNVTKTQTTDVNRTYQEKDKRGGIFDAVFTRGDQSKLLTSRHDFKEKGLKEISDLIKQELTEGKALGLSHTYANVRLNHVINLWGADFDSDGNLKAIYVTDSDSNASIGMKKYFVGVNSSGKVAISAKEIKEDNIGAQVLGLFTLSTGQDIWNQTN"}, "B15": {"name": "PRT-299 (protein)", "chain": "B14 chain with A14T, T17I, Q18K, V28K, N30G, L216I, N217G"}, "B16": {"name": "PRT-300 (protein)", "chain": "B14 chain with A14T, T17I, Q18K, V28K, N30G"}, "B17": {"name": "PRT-292 (protein)", "chain": "B14 chain with V28D, L216I, N217S, S259A"}},
  "note": "Residue numbers refer to the chain shown, from its start.",
  "data": [
    {"molecular_target": "pooled human IgG (human IgG1,2,3 and 4)", "units": {"Enzyme Activity Endpoint Assay: Fab′2": "ng/µL", "Enzyme Activity Endpoint Assay: Fc": "ng/µL", "Enzyme Activity Endpoint Assay: IgG": "ng/µL", "Enzyme Activity Endpoint Assay: scIgG": "ng/µL"}, "values": [
      {"protein": "B1", "Enzyme Activity Endpoint Assay: Fab′2": 380, "Enzyme Activity Endpoint Assay: Fc": 271, "Enzyme Activity Endpoint Assay: IgG": 186, "Enzyme Activity Endpoint Assay: scIgG": 91},
      {"protein": "B2", "Enzyme Activity Endpoint Assay: Fab′2": 72, "Enzyme Activity Endpoint Assay: Fc": 184, "Enzyme Activity Endpoint Assay: IgG": 45, "Enzyme Activity Endpoint Assay: scIgG": 483},
      {"protein": "B3", "Enzyme Activity Endpoint Assay: Fab′2": 793, "Enzyme Activity Endpoint Assay: Fc": 354, "Enzyme Activity Endpoint Assay: IgG": 0, "Enzyme Activity Endpoint Assay: scIgG": 0},
      {"protein": "B4", "Enzyme Activity Endpoint Assay: Fab′2": 130, "Enzyme Activity Endpoint Assay: Fc": 256, "Enzyme Activity Endpoint Assay: IgG": 235, "Enzyme Activity Endpoint Assay: scIgG": 743},
      {"protein": "B5", "Enzyme Activity Endpoint Assay: Fab′2": 954, "Enzyme Activity Endpoint Assay: Fc": 398, "Enzyme Activity Endpoint Assay: IgG": 0, "Enzyme Activity Endpoint Assay: scIgG": 0},
      {"protein": "B6", "Enzyme Activity Endpoint Assay: Fab′2": 169, "Enzyme Activity Endpoint Assay: Fc": 257, "Enzyme Activity Endpoint Assay: IgG": 97, "Enzyme Activity Endpoint Assay: scIgG": 589},
      {"protein": "B7", "Enzyme Activity Endpoint Assay: Fab′2": 912, "Enzyme Activity Endpoint Assay: Fc": 383, "Enzyme Activity Endpoint Assay: IgG": 0, "Enzyme Activity Endpoint Assay: scIgG": 0},
      {"protein": "B8", "Enzyme Activity Endpoint Assay: Fab′2": 634, "Enzyme Activity Endpoint Assay: Fc": 365, "Enzyme Activity Endpoint Assay: IgG": 56, "Enzyme Activity Endpoint Assay: scIgG": 0},
      {"protein": "B9", "Enzyme Activity Endpoint Assay: Fab′2": 429, "Enzyme Activity Endpoint Assay: Fc": 325, "Enzyme Activity Endpoint Assay: IgG": 90, "Enzyme Activity Endpoint Assay: scIgG": 282},
      {"protein": "B10", "Enzyme Activity Endpoint Assay: Fab′2": 215, "Enzyme Activity Endpoint Assay: Fc": 290, "Enzyme Activity Endpoint Assay: IgG": 138, "Enzyme Activity Endpoint Assay: scIgG": 614},
      {"protein": "B11", "Enzyme Activity Endpoint Assay: Fab′2": 405, "Enzyme Activity Endpoint Assay: Fc": 204, "Enzyme Activity Endpoint Assay: IgG": 59, "Enzyme Activity Endpoint Assay: scIgG": 106},
      {"protein": "B12", "Enzyme Activity Endpoint Assay: Fab′2": 981, "Enzyme Activity Endpoint Assay: Fc": 408, "Enzyme Activity Endpoint Assay: IgG": 0, "Enzyme Activity Endpoint Assay: scIgG": 0},
      {"protein": "B13", "Enzyme Activity Endpoint Assay: Fab′2": 998, "Enzyme Activity Endpoint Assay: Fc": 429, "Enzyme Activity Endpoint Assay: IgG": 0, "Enzyme Activity Endpoint Assay: scIgG": 0},
      {"protein": "B14", "Enzyme Activity Endpoint Assay: Fab′2": 1020, "Enzyme Activity Endpoint Assay: Fc": 420, "Enzyme Activity Endpoint Assay: IgG": 0, "Enzyme Activity Endpoint Assay: scIgG": 0},
      {"protein": "B15", "Enzyme Activity Endpoint Assay: Fab′2": 549, "Enzyme Activity Endpoint Assay: Fc": 378, "Enzyme Activity Endpoint Assay: IgG": 368, "Enzyme Activity Endpoint Assay: scIgG": 0},
      {"protein": "B16", "Enzyme Activity Endpoint Assay: Fab′2": 333, "Enzyme Activity Endpoint Assay: Fc": 274, "Enzyme Activity Endpoint Assay: IgG": 276, "Enzyme Activity Endpoint Assay: scIgG": 43},
      {"protein": "B17", "Enzyme Activity Endpoint Assay: Fab′2": 758, "Enzyme Activity Endpoint Assay: Fc": 359, "Enzyme Activity Endpoint Assay: IgG": 0, "Enzyme Activity Endpoint Assay: scIgG": 0}
    ]}
  ]
}
